From the nanobody polyreactivity screen of Harvey et al. (2022)

Experiment: yeast display, Sf9 membrane polyspecificity reagent, FACS + sequencing; frameworks hold sequencing errors
Summary of the method: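 In a synthetic yeast display library (Saccharomyces cerevisiae BJ5465), nanobody expression was induced with galactose for 36–48 hours. FACS gates were set low and high (top ~1%) using anti-HA fluorescence for expression and streptavidin fluorescence for binding of the Sf9 membrane reagent. Each polyreactivity label is drawn from the gate of origin.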
In the case of “QVQLVESGGGLVQAGGSLRLSCAASGSTFVGYTMGWYRQAPGKERELVASITSDGSTNYADSVKGRFTISRDNAKNTVYLQMNSLKPEDTAVYYCNADIRRHGGYAHEYWGQGTQVTVSS”, the “polyreactivity (PSR sort gate)” value is reported as “low polyreactivity”.
In the case of “QVQLVESGGGLVQAGGSLRLSCAASGSTFVINAMGWYRQAPGKERELVAAIDFSGGSTYYADSVKGRFTISRDNAKNTVYLQMNSLKPEDTAVYYCAAVLSSYGYGGYTWYDYEYWGKGTQVTVSS”, the “polyreactivity (PSR sort gate)” value is reported as “high polyreactivity”.
In the case of “QVQLVESGGGLVQAGGSLRLSCAASGSTFVIYGMGWYRQAPGKERELVADITWIGGSTYYADSVKGRFTISRDNAKNTVYLQMNSLKPEDTAVYYCAADAAYLYLYNWYDTEDDYWGEGTQVTVSS”, the “polyreactivity (PSR sort gate)” value is reported as “low polyreactivity”.
With “QVQLVESGGGLVQAGGSLRLSCAASGSTFVKNAMGWYRQAPGKERELVAAIRSSGGSTYYADSVKGRFTISRDNAKNTVYLQMNSLKPEDTAVYYCNKVLQASRSKYYYWGQGTQVTVSS” the “polyreactivity (PSR sort gate)” value was “high polyreactivity”.
In the case of “QVQLVESGGGLVQAGGSLRLSCAASGSTFVKNAMGWYRQAPGKERELVAAISGRGGSTYYADSVKGRFTISRDNAKNTVYLQMNSLKPEDTAVYYCNKAYSVAYTYNYWGQGTQVTVSS”, the “polyreactivity (PSR sort gate)” value is reported as “high polyreactivity”.
With “QVQLVESGGGLVQAGGSLRLSCAASGSTFVKNAMGWYRQAPGKERELVAAISYRGGRTYYADSVKGRYTISRDNAKNTVYLQMNSLKPEDTAVYYCNARYRTPSFIRMGYWGQGTQVTVSS” the “polyreactivity (PSR sort gate)” value was “high polyreactivity”.
With “QVQLVESGGGLVQAGGSLRLSCAASGSTFVKYAMGWYRQAPGKERELVAAISWSGGRTYYADSVKGRFTISRDNAKNTVYLQMNSLKPEDTAVYYCAARSWYDRYPYYSWGQGTQVTVSS” the “polyreactivity (PSR sort gate)” value was “high polyreactivity”.
For “QVQLVESGGGLVQAGGSLRLSCAASGSTFVLYAMGWYRQAPGKERELVAAITWTGGTTNYADSVKGRFTISLDNAKNTDYLQMNILQPEDTAVSYCAAKTNGRYDYWGQGTQVTVSS”, the “polyreactivity (PSR sort gate)” value was “low polyreactivity”.
For “QVQLVESGGGLVQAGGSLRLSCAASGSTFVNYGMGWYRQAPGKERELVAAITQSGGSTYYADSVKGRFTISRDNAKNTVYLQMNSLKPEDTAVYYCAAEVVRQWHGIGYDYWGQGTQVTVSS”, the “polyreactivity (PSR sort gate)” value was “low polyreactivity”.
For “QVQLVESGGGLVQAGGSLRLSCAASGSTFVPNAMGWYRQAPGKERELVAAISSVGSTNYADSVKGRFTISRDNAKNTVYLQLNSLKPEDTAVYYCAVRYPWRYFKYGYWGQGTQVTVSS”, the “polyreactivity (PSR sort gate)” value was “low polyreactivity”.
For “QVQLVESGGGLVQAGGSLRLSCAASGSTFVPNAMGWYRQAPGKERELVAAISSVGSTNYADSVKGRFTISRDNAKNTVYLQMNSLKPEDTAVYYCAVRYPWRYFKYGYWGQGSQVTVSS”, the “polyreactivity (PSR sort gate)” value was “low polyreactivity”.
For “QVQLVESGGGLVQAGGSLRLSCAASGSTFVPNAMGWYRQAPGKERELVADITSGGITNYADSVKGRFTISRDNAKNTVYLQMISLNPEDTGVYYCAVLYYILAPGYDYWGQGTLVTVSS”, the “polyreactivity (PSR sort gate)” value was “low polyreactivity”.
In the case of “QVQLVESGGGLVQAGGSLRLSCAASGSTFVPYAIGWYRQAPGTERELVAAISSRGGRTSYADSVKGRFTISRDNAKNTVYLQMKRLKPEDTAVYYCIALYPGRLTDYSRSKMEYWGQGTQVTVSS”, the “polyreactivity (PSR sort gate)” value is reported as “high polyreactivity”.
With “QVQLVESGGGLVQAGGSLRLSCAASGSTFVPYAMGWYRQAPGKERELVAAITDSGGSTSYADSVKGRFTISRDKAKNSVYLQMNSLKPEDTAVYYCAAQTRAIVQKYPGDDYWGQGTQVTVSS” the “polyreactivity (PSR sort gate)” value was “low polyreactivity”.
With “QVQLVESGGGLVQAGGSLRLSCAASGSTFVPYAMGWYRQAPGKERELVAAITTSGGNTYYADSVKGRFTISRDNAKNTVYLQMNSLKPEDTAVYYCAADTYRRFDYWGEGTQVTVSS” the “polyreactivity (PSR sort gate)” value was “low polyreactivity”.
For “QVQLVESGGGLVQAGGSLRLSCAASGSTFVPYAMGWYRQAPGKERELVASISWRGGSTSYADSVKGRFTISRDNAKNTVYLQMNSLKPEDTAVYYCAARPRYRYKQDYYYWGQGTQVTVSS”, the “polyreactivity (PSR sort gate)” value was “high polyreactivity”.
For “QVQLVESGGGLVQAGGSLRLSCAASGSTFVPYVMGWYRQAPGKERELVAAISKSGTSTYYADSVKGRFTISRDNAKNTVYLQMNCLKPEDTAVYYCAAVARRQVPYDYWGQGTQVTVSS”, the “polyreactivity (PSR sort gate)” value was “high polyreactivity”.
For “QVQLVESGGGLVQAGGSLRLSCAASGSTFVRNAMGWYRQAPGKERELVAGITFGGGSTYYADSVKGRFTISRDIAKNTVYLQMNSLKPEDTAVYYCAADLSYRGATRGDYYWGQGTQVTVSS”, the “polyreactivity (PSR sort gate)” value was “low polyreactivity”.
In the case of “QVQLVESGGGLVQAGGSLRLSCAASGSTFVRYAMGGYRQAPGKERELVAAISWSGASTYYADSVKGRFTISRDNAKNTVYLQMNSLKPEDTAVYYCAARSRWYDAAGYPKYYYWGQGTQVTVSS”, the “polyreactivity (PSR sort gate)” value is reported as “high polyreactivity”.
For “QVQLVESGGGLVQAGGSLRLSCAASGSTFVRYAMGWYRQAPGKERELVAAISSNGGSTYYADSVKGRFTISRDNAKNSVYLQMNSLKPEDTAVYYCAKSRVRKYYWGQGTQVTVSS”, the “polyreactivity (PSR sort gate)” value was “high polyreactivity”.
For “QVQLVESGGGLVQAGGSLRLSCAASGSTFVRYSMGWYRQAPGKERDLVAAITSSGGSTYYADSVKGRFTISRDNAKNSVYFQMNSLKPEDTAVYDFAAARYPYRYIYNYWGQGTQVTVSS”, the “polyreactivity (PSR sort gate)” value was “high polyreactivity”.
For “QVQLVESGGGLVQAGGSLRLSCAASGSTFVRYVMGWYRQAPGKERELVAAISRRGGSTYYADSVKGRFTISRDNAKNTVYLQMNSLKPEDTAVYYCARTVGYRTLLESDSWGQGTQVTVSS”, the “polyreactivity (PSR sort gate)” value was “high polyreactivity”.
With “QVQLVESGGGLVQAGGSLRLSCAASGSTFVRYVMGWYRQAPGKQRELVAAISRRGGSTYYADSVEGRFTISRDNAKNTVYLQMNSLKPEDTAVYYCAARGTSRKYYYWGQGTQVTVSS” the “polyreactivity (PSR sort gate)” value was “high polyreactivity”.
For “QVQLVESGGGLVQAGGSLRLSCAASGSTFVRYVMGWYRQATGKERELVAAISRRGGSTYYADSVKGRFTISRDNAKNTVYLQMNSLKPEDTAVYYCARTVGYRTLLESDSWGQGTQVTVSS”, the “polyreactivity (PSR sort gate)” value was “high polyreactivity”.
In the case of “QVQLVESGGGLVQAGGSLRLSCAASGSTFVSSALGWSSQAPGKARELVARIRRSGGSTYYADSVKGRFTISRDNAKNTVYLQMNSLKPEDTAVYDCAAGYSRGQYRYNYWGQGTQVTVSS”, the “polyreactivity (PSR sort gate)” value is reported as “high polyreactivity”.
For “QVQLVESGGGLVQAGGSLRLSCAASGSTFVSYAMGWYRQAPGKERELVAAISSGGGSTYYADSVKGRFTISRDNAKNTVYLQMNSLKPEDTAVYYCAARGYAYRAQYGYWGQGTQVTVSS”, the “polyreactivity (PSR sort gate)” value was “high polyreactivity”.
For “QVQLVESGGGLVQAGGSLRLSCAASGSTFVSYAMGWYRQEPGKERELVATISQSGGSTSYADSVKGRFTISRDNAKNTVYFQMNCRKPEDTAVYNCAARLRAPHRRSYNYWGQGTQVTVSS”, the “polyreactivity (PSR sort gate)” value was “high polyreactivity”.
In the case of “QVQLVESGGGLVQAGGSLRLSCAASGSTFVTNDMGWYRQAPGKERDLVADISWSGGDTYYADSVKGRFTISRDNAKNTVYLQMNSLKPEDTAVYYCAARPDQGLAYSPLPWYNYWGQGTQVTVSS”, the “polyreactivity (PSR sort gate)” value is reported as “low polyreactivity”.
In the case of “QVQLVESGGGLVQAGGSLRLSCAASGSTFVTNDMGWYRQAPGKESELVAAISSGTSTNYADSVKGRFTISRDNAKNTVYLQMNSLKPEDTAVYYCAADSLKRYDYWGQGTQVTVSS”, the “polyreactivity (PSR sort gate)” value is reported as “low polyreactivity”.
In the case of “QVQLVESGGGLVQAGGSLRLSCAASGSTFVTYAKGWYRQAPGKERELVAAITSGGSTNYADSVKGRFTISRDNAKNTVYLQMNCLKPEDTEVYYCAARYYGAYGKQPRARYGYWGQGTQVTVSS”, the “polyreactivity (PSR sort gate)” value is reported as “high polyreactivity”.
In the case of “QVQLVESGGGLVQAGGSLRLSCAASGSTFVVNAMGWYRQAPGKEREFVAAITWNGGSTYADSVKGRFTISRDNAKNTVYLQMNSLKPEDTAVYYCSADLSYWDDFDYWGQGTQVTVSS”, the “polyreactivity (PSR sort gate)” value is reported as “low polyreactivity”.
In the case of “QVQLVESGGGLVQAGGSLRLSCAASGSTFVVNAMGWYRQAPGKERELVAAITLSTGSTYYADSVKGRFTISRDNAKNTVYLQMNSLKPEDTAVYYCNTEIYVDIISDYGYWGQGTEVTVSS”, the “polyreactivity (PSR sort gate)” value is reported as “low polyreactivity”.
With “QVQLVESGGGLVQAGGSLRLSCAASGSTFVVNAMGWYRQAPGKERELVAAITQSGGSTFYADSVKGRFTISRDNAKNTVYLQMNSLKPEETAVYYWGHGTQVTVSS” the “polyreactivity (PSR sort gate)” value was “low polyreactivity”.
In the case of “QVQLVESGGGLVQAGGSLRLSCAASGSTFVVNTMGWYRQAPGKERELVAAITRRTTSTYYADSVKGRFTISRDNAKNTVYLQMNSLKPEDTAVYYCAAERRHYSTTYYYWGQGTQVTVSS”, the “polyreactivity (PSR sort gate)” value is reported as “high polyreactivity”.
With “QVQLVESGGGLVQAGGSLRLSCAASGSTFVWYAMGWYRQAPGKEREFVAAITSDGGSTYYADSVKGRFTISRDNAKNTVYLQLNSLKPEDTAVYYCAADYYSLASGWYYYWGQGTQVTVSS” the “polyreactivity (PSR sort gate)” value was “high polyreactivity”.
In the case of “QVQLVESGGGLVQAGGSLRLSCAASGSTFVWYAMGWYRQAPGKEREFVATISWSGDSTYYADSVKGRFTISRDNAKNTVYLQMNSLKPEDTAVYYCATAVYLVIFEYDYWGQGSQVTVSS”, the “polyreactivity (PSR sort gate)” value is reported as “low polyreactivity”.
With “QVQLVESGGGLVQAGGSLRLSCAASGSTFVWYGMGWYRQAPGKEREFVAAISTSGGRTYYADSVKGRFTISRDNAKNTVYLQMNSLKPEDTAVYYCATRPYFTYRWYDYWGQGTQVTVSS” the “polyreactivity (PSR sort gate)” value was “high polyreactivity”.
In the case of “QVQLVESGGGLVQAGGSLRLSCAASGSTFVYNAMGWYRQAPGKERELVAAISRRGGSTYYADSVKGRFTISRDNAKNTVYLQMNSLKPEDTAVYYCATDRVQDSYYWGQGTQVTVSS”, the “polyreactivity (PSR sort gate)” value is reported as “high polyreactivity”.
In the case of “QVQLVESGGGLVQAGGSLRLSCAASGSTFVYNAMGWYRQAPGKERELVAAISTGGSTYYADSVKGRFTISRDNAKNTVYLQMNSLKPEDNAVYYCAAKQRTTLYDYWGQGTQVTVSS”, the “polyreactivity (PSR sort gate)” value is reported as “high polyreactivity”.
With “QVQLVESGGGLVQAGGSLRLSCAASGSTFVYNTMGWYRQAPGKERELVASISSDGNTYYADSVKGRFTISRDNAKNTVYLQMNSLKPEDTAVYYCAARYYYDWRFVGYDYWGQGTQVTVSS” the “polyreactivity (PSR sort gate)” value was “low polyreactivity”.
For “QVQLVESGGGLVQAGGSLRLSCAASGSTFVYYAMGWSRQAPGKERELVAAIKRSGTRTYYADSVKGRFTISRDNAKNTVYLQMNSLKPEDTAVYYCANAVQGKYGYWGQGTQVTVSS”, the “polyreactivity (PSR sort gate)” value was “high polyreactivity”.
For “QVQLVESGGGLVQAGGSLRLSCAASGSTFVYYAMGWYRQAPGKERELVAAISTSAGSTYYADSVKGRFTISRDNAKNTVYLQMNSLKPEDTAVYYCAASRKRRRYGSISGGYWGQGTQVTVSS”, the “polyreactivity (PSR sort gate)” value was “high polyreactivity”.
With “QVQLVESGGGLVQAGGSLRLSCAASGSTFVYYAMGWYRQAPGKERELVAAITGSVDSTYYADSVKGRFTISRDNAKNTVYLQMNSLNPEDTAVYYCAAVTYSTYWGQGTQVTVSS” the “polyreactivity (PSR sort gate)” value was “low polyreactivity”.
